Results on three substances are retold here after patent publication US20150080554A1.

Assay [1] concerns the target mAb (Table 2, column 'pH mAb'). Put plainly: gradient elution pH 6 to pH 3, 0.1 M citrate, from ligand-coupled agarose column; about 10 mg cell culture supernatant loaded.
The target in assay [2] is polyclonal human IgG (Gammanorm, Octapharma) (human). Put plainly: breakthrough on ligand-coupled agarose column; 1 mg/ml IgG in 20 mM PBS + 0.15 M NaCl pH 7.4; residence time 6 min; ligand density 5.3 mg/ml.
Assay [3] has the same target. Put plainly: gradient elution pH 6 to pH 3, 0.1 M citrate, from ligand-coupled agarose column.
Assay [4] has the same target. Put plainly: breakthrough on ligand-coupled agarose column; 1 mg/ml IgG in 20 mM PBS + 0.15 M NaCl pH 7.4; residence time 2.4 min; ligand density 5.3 mg/ml.
Assay [5] has the same target. The assay is described as follows: breakthrough on ligand-coupled agarose column; 1 mg/ml IgG in 20 mM PBS + 0.15 M NaCl pH 7.4; residence time 2.4 min; ligand density 6.7 mg/ml.
The target is the same in assay [6]. Put plainly: breakthrough on ligand-coupled agarose column; 1 mg/ml IgG in 20 mM PBS + 0.15 M NaCl pH 7.4; residence time 6 min; ligand density 6.7 mg/ml.
For assay [7] the target is unchanged. The assay is described as follows: breakthrough on ligand-coupled agarose column; 1 mg/ml IgG in 20 mM PBS + 0.15 M NaCl pH 7.4; residence time 6 min; ligand density 6.9 mg/ml.
For assay [8] the target is unchanged. Put plainly: breakthrough on ligand-coupled agarose column; 1 mg/ml IgG in 20 mM PBS + 0.15 M NaCl pH 7.4; residence time 2.4 min; ligand density 6.9 mg/ml.

In turn, Mutant Z(H18S,P57I)4 (designed binder) returned an elution pH at peak apex, pH mAb in assay [1] of 4.71 pH. Besides, in assay [2], the Qb10% (dynamic binding capacity at 10% breakthrough) turned out to be 47 mg/ml resin and the Qb80% (dynamic binding capacity at 80% breakthrough) amounted to 58 mg/ml resin. Besides, in assay [3], the elution pH at peak apex, pH hIgG (first peak) came out at 5.44 pH and the elution pH at peak apex, pH hIgG (second peak) was found to be 4.91 pH. In addition, in assay [4], the Qb10% (dynamic binding capacity at 10% breakthrough) was 35.6 mg/ml resin and the Qb80% (dynamic binding capacity at 80% breakthrough) was determined as 56 mg/ml resin.

Regarding “Comparative prototype Z(H18S)4 (designed binder)”, in assay [5], the Qb10% (dynamic binding capacity at 10% breakthrough) amounted to 37 mg/ml resin and the Qb80% (dynamic binding capacity at 80% breakthrough) turned out to be 62.2 mg/ml resin. In assay [3], the elution pH at peak apex, pH hIgG (first peak) amounted to 5.1 pH and the elution pH at peak apex, pH hIgG (second peak) was found to be 4.61 pH. Also, in assay [6], the Qb10% (dynamic binding capacity at 10% breakthrough) stood at 55 mg/ml resin and the Qb80% (dynamic binding capacity at 80% breakthrough) worked out at 67.5 mg/ml resin.

In the case of Mutant Z(H18S,N28A)4 (designed binder), in assay [7], the Qb10% (dynamic binding capacity at 10% breakthrough) was found to be 45.9 mg/ml resin and the Qb80% (dynamic binding capacity at 80% breakthrough) was 59.1 mg/ml resin. For the same substance, the elution pH at peak apex, pH mAb in assay [1] came to 5.05 pH. Besides, in assay [8], the Qb10% (dynamic binding capacity at 10% breakthrough) is 35.2 mg/ml resin and the Qb80% (dynamic binding capacity at 80% breakthrough) amounted to 56 mg/ml resin. In assay [3], the elution pH at peak apex, pH hIgG (first peak) is 5.68 pH and the elution pH at peak apex, pH hIgG (second peak) is 5.15 pH.
